One block for each molecule: values may come before it.
Key:
[1] = molecular target: recombinant human BMP2 derived from E. coli expression (human) (UniProt P12643); experiment: SPR
[2] = molecular target: recombinant human BMP2 derived from E. coli expression (human, UniProt P12643 283-396); experiment: SPR
Chain of recombinant human BMP2 derived from E. coli expression (P12643 283-396): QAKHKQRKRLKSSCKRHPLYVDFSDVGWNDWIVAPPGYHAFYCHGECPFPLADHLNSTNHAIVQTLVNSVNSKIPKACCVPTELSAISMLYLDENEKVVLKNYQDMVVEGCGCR

Chain of recombinant human BMP2 derived from E. coli expression (human) (P12643 283-396): as above

Kd [1]: 20.2 nM
koff [1]: 0.00071 s⁻¹
kon [1]: 38000 M⁻¹ s⁻¹
Molecule: Xenopus Tsg (xTsg) from E. coli, non-glycosylated (natural protein)

Kd [1]: 2.5 nM
koff [1]: 0.0002 s⁻¹
kon [1]: 110000 M⁻¹ s⁻¹
Molecule: Xenopus Tsg (xTsg) from insect cells, glycosylated (natural protein)

KD of the low affinity interaction of the biphasic binding [2]: 301 nM
KD of the slow (high affinity) interaction of the biphasic binding [2]: 39.6 nM
B1: mouse TWSG1 (mTWSG1) from E. coli, non-glycosylated (natural protein, UniProt Q9EP52 25-222, looked up)
chain: CNKALCASDVSKCLIQELCQCRPGEGNCPCCKECMLCLGALWDECCDCVGMCNPRNYSDTPPTSKSTVEELHEPIPSLFRALTEGDTQLNWNIVSFPVAEELSHHENLVSFLETVNQLHHQNVSVPSNNVHAPFPSDKERMCTVVYFDDCMSIHQCKISCESMGASKYRWFHNACCECIGPECIDYGSKTVKCMNCMF

From article PMC3170884 (Frontiers in Physiology, 2011)
